Measurements published in patent US20070081999A1.
One block for each substance: values may come before it.

Experiments:
[1] = target: baboon von Willebrand factor (vWF) (baboon); test: ex vivo occupancy ELISA, baboon plasma, 300 µg/kg, 150 min
[2] = target: baboon von Willebrand factor (vWF) (baboon); test: ex vivo occupancy ELISA, baboon plasma, 300 µg/kg, 30 min
[3] = target: baboon von Willebrand factor (vWF) (baboon); test: ex vivo occupancy ELISA, baboon plasma, 600 µg/kg, 300 min
[4] = target: baboon von Willebrand factor (vWF) (baboon); test: ex vivo occupancy ELISA (vWF captured, bound mAb detected), baboon plasma, 100 µg/kg group, 0 min (before dosing)
[5] = target: baboon von Willebrand factor (vWF) (baboon); test: ex vivo ELISA on coated human collagen type I, baboon plasma 60 min after 600 µg/kg mAb 82D6A3
[6] = target: baboon von Willebrand factor (vWF) (baboon); test: ex vivo occupancy ELISA, baboon plasma, 300 µg/kg, 60 min
[7] = target: baboon von Willebrand factor (vWF) (baboon); test: ex vivo ELISA on coated human collagen type I, baboon plasma 1 hour after 100 µg/kg mAb 82D6A3
[8] = target: baboon von Willebrand factor (vWF) (baboon); test: ex vivo occupancy ELISA, baboon plasma, 300 µg/kg, 24 h
[9] = target: baboon von Willebrand factor (vWF) (baboon); test: ex vivo occupancy ELISA, baboon plasma, 100 µg/kg, 60 min
[10] = target: baboon von Willebrand factor (vWF) (baboon); test: ex vivo occupancy ELISA, baboon plasma, 600 µg/kg, 30 min
[11] = target: human von Willebrand factor (vWF) (human) (UniProt P04275); test: competition ELISA: inhibition of plasma or purified human vWF binding to coated human collagen type I
human von Willebrand factor (vWF) (human), sequence (P04275 764-2813 limits assumed): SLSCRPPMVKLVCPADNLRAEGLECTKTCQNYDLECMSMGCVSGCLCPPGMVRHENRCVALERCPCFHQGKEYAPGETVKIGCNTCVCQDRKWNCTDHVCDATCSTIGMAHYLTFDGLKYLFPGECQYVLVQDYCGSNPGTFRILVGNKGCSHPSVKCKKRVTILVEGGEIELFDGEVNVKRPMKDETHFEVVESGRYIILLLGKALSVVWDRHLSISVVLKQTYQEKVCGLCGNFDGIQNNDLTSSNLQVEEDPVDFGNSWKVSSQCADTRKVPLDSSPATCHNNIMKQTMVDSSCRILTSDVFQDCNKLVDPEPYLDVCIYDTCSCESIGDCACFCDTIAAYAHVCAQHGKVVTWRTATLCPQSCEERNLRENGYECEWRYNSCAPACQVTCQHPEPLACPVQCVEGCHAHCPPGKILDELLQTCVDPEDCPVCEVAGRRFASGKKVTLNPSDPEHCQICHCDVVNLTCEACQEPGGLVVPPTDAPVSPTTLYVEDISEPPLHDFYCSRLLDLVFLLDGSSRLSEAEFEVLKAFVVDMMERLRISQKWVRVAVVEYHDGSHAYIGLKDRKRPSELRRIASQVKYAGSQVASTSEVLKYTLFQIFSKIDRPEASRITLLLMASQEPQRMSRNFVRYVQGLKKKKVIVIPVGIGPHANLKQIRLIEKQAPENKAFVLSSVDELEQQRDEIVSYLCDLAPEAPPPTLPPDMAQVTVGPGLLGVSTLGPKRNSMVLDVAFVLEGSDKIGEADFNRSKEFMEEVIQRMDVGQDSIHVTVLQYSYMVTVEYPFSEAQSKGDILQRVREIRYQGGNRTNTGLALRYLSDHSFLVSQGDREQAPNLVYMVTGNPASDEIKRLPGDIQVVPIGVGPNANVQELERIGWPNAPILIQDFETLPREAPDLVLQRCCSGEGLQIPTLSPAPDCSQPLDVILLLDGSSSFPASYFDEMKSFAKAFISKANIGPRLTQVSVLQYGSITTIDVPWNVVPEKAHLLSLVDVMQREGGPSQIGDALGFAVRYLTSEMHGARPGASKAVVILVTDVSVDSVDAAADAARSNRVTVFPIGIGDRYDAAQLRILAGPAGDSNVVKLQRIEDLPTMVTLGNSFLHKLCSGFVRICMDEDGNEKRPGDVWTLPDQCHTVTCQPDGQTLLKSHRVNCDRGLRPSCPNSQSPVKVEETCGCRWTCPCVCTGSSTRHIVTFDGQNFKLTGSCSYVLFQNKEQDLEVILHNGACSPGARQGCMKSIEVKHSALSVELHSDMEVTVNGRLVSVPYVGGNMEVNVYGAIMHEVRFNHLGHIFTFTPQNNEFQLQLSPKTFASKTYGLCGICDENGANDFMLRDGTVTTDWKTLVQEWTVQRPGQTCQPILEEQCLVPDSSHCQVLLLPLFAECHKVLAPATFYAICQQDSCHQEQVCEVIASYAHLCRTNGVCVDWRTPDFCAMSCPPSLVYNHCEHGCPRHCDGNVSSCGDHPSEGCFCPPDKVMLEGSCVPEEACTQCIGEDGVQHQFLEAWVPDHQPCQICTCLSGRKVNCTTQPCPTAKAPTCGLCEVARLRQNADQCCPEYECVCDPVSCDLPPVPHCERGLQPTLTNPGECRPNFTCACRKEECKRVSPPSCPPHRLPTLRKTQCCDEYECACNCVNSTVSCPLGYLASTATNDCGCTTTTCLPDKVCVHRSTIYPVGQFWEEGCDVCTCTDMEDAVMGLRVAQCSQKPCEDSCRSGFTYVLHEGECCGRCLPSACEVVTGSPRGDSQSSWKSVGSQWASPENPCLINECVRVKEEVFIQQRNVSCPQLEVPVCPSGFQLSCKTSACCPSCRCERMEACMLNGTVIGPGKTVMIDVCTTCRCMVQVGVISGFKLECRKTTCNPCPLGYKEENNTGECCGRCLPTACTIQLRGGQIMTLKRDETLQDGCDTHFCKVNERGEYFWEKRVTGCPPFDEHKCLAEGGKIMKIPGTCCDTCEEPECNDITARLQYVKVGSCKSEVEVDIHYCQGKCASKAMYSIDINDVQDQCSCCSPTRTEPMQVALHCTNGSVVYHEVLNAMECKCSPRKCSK

[12] = target: baboon von Willebrand factor (vWF) (baboon); test: ex vivo occupancy ELISA, baboon plasma, 300 µg/kg, 300 min
[13] = target: baboon von Willebrand factor (vWF) (baboon); test: ex vivo occupancy ELISA, baboon plasma, 300 µg/kg, 48 h
[14] = target: baboon von Willebrand factor (vWF) (baboon); test: ex vivo vWF-occupancy ELISA on baboon plasma against 82D6A3 plasma level
[15] = target: baboon von Willebrand factor (vWF) (baboon); test: ex vivo occupancy ELISA, baboon plasma, 600 µg/kg, 150 min
[16] = target: baboon von Willebrand factor (vWF) (baboon); test: ex vivo ELISA on coated human collagen type I, baboon plasma 60 min after 300 µg/kg mAb 82D6A3
[17] = target: baboon von Willebrand factor (vWF) (baboon); test: ex vivo occupancy ELISA, baboon plasma, 600 µg/kg, 24 h
[18] = target: baboon von Willebrand factor (vWF) (baboon); test: ex vivo occupancy ELISA, baboon plasma, 600 µg/kg, 60 min
[19] = target: baboon von Willebrand factor (vWF) (baboon); test: ex vivo occupancy ELISA, baboon plasma, 600 µg/kg group, 0 min (before dosing)
[20] = target: human von Willebrand factor (vWF) (human) (UniProt P04275); test: cell-based or functional assay
[21] = target: baboon von Willebrand factor (vWF) (baboon); test: ex vivo occupancy ELISA, baboon plasma, 100 µg/kg, 30 min
[22] = target: baboon von Willebrand factor (vWF) (baboon); test: ex vivo occupancy ELISA, baboon plasma, 300 µg/kg group, 0 min (before dosing)
[23] = target: human placental collagen type I (fibrillar) (human) (UniProt P02452); test: ex vivo ELISA on coated human collagen type I, baboon plasma, 600 µg/kg mAb 82D6A3 group, 0 min (before dosing; pre sample set as 100%)
[24] = target: human placental collagen type I (fibrillar) (human) (UniProt P02452); test: ex vivo ELISA on coated human collagen type I, baboon plasma 60 min after 100 µg/kg mAb 82D6A3, against the pre sample
[25] = target: human placental collagen type I (fibrillar) (human) (UniProt P02452); test: ex vivo ELISA on coated human collagen type I, baboon plasma 24 h after 600 µg/kg mAb 82D6A3, against the pre sample
[26] = target: human placental collagen type I (fibrillar) (human) (UniProt P02452); test: ex vivo ELISA on coated human collagen type I, baboon plasma 150 min after 300 µg/kg mAb 82D6A3, against the pre sample
[27] = target: human placental collagen type I (fibrillar) (human) (UniProt P02452); test: ex vivo ELISA on coated human collagen type I, baboon plasma 30 min after 300 µg/kg mAb 82D6A3, against the pre sample
[28] = target: human placental collagen type I (fibrillar) (human) (UniProt P02452); test: ex vivo ELISA on coated human collagen type I, baboon plasma 150 min after 600 µg/kg mAb 82D6A3, against the pre sample
[29] = target: human placental collagen type I (fibrillar) (human) (UniProt P02452); test: ex vivo ELISA on coated human collagen type I, baboon plasma 60 min after 300 µg/kg mAb 82D6A3, against the pre sample
[30] = target: human placental collagen type I (fibrillar) (human) (UniProt P02452); test: ex vivo ELISA on coated human collagen type I, baboon plasma, 300 µg/kg mAb 82D6A3 group, 0 min (before dosing; pre sample set as 100%)
[31] = target: human placental collagen type I (fibrillar) (human) (UniProt P02452); test: ex vivo ELISA on coated human collagen type I, baboon plasma 60 min after 600 µg/kg mAb 82D6A3, against the pre sample
[32] = target: human placental collagen type I (fibrillar) (human) (UniProt P02452); test: ex vivo ELISA on coated human collagen type I, baboon plasma 48 h after 300 µg/kg mAb 82D6A3, against the pre sample
[33] = target: human placental collagen type I (fibrillar) (human) (UniProt P02452); test: ex vivo ELISA on coated human collagen type I, baboon plasma 30 min after 100 µg/kg mAb 82D6A3, against the pre sample
[34] = target: human placental collagen type I (fibrillar) (human) (UniProt P02452); test: ex vivo ELISA on coated human collagen type I, baboon plasma 30 min after 600 µg/kg mAb 82D6A3, against the pre sample
[35] = target: human placental collagen type I (fibrillar) (human) (UniProt P02452); test: ex vivo ELISA on coated human collagen type I, baboon plasma 24 h after 300 µg/kg mAb 82D6A3, against the pre sample
[36] = target: human placental collagen type I (fibrillar) (human) (UniProt P02452); test: ex vivo ELISA on coated human collagen type I, baboon plasma 300 min after 300 µg/kg mAb 82D6A3, against the pre sample
[37] = target: human placental collagen type I (fibrillar) (human) (UniProt P02452); test: ex vivo ELISA on coated human collagen type I, baboon plasma 300 min after 600 µg/kg mAb 82D6A3, against the pre sample
[38] = target: human placental collagen type I (fibrillar) (human) (UniProt P02452); test: ex vivo ELISA on coated human collagen type I, baboon plasma, 100 µg/kg mAb 82D6A3 group, 0 min (before dosing; pre sample set as 100%)

baboon von Willebrand factor (vWF) (baboon), sequence (A0A096 entry or part of it limits assumed, form in doubt): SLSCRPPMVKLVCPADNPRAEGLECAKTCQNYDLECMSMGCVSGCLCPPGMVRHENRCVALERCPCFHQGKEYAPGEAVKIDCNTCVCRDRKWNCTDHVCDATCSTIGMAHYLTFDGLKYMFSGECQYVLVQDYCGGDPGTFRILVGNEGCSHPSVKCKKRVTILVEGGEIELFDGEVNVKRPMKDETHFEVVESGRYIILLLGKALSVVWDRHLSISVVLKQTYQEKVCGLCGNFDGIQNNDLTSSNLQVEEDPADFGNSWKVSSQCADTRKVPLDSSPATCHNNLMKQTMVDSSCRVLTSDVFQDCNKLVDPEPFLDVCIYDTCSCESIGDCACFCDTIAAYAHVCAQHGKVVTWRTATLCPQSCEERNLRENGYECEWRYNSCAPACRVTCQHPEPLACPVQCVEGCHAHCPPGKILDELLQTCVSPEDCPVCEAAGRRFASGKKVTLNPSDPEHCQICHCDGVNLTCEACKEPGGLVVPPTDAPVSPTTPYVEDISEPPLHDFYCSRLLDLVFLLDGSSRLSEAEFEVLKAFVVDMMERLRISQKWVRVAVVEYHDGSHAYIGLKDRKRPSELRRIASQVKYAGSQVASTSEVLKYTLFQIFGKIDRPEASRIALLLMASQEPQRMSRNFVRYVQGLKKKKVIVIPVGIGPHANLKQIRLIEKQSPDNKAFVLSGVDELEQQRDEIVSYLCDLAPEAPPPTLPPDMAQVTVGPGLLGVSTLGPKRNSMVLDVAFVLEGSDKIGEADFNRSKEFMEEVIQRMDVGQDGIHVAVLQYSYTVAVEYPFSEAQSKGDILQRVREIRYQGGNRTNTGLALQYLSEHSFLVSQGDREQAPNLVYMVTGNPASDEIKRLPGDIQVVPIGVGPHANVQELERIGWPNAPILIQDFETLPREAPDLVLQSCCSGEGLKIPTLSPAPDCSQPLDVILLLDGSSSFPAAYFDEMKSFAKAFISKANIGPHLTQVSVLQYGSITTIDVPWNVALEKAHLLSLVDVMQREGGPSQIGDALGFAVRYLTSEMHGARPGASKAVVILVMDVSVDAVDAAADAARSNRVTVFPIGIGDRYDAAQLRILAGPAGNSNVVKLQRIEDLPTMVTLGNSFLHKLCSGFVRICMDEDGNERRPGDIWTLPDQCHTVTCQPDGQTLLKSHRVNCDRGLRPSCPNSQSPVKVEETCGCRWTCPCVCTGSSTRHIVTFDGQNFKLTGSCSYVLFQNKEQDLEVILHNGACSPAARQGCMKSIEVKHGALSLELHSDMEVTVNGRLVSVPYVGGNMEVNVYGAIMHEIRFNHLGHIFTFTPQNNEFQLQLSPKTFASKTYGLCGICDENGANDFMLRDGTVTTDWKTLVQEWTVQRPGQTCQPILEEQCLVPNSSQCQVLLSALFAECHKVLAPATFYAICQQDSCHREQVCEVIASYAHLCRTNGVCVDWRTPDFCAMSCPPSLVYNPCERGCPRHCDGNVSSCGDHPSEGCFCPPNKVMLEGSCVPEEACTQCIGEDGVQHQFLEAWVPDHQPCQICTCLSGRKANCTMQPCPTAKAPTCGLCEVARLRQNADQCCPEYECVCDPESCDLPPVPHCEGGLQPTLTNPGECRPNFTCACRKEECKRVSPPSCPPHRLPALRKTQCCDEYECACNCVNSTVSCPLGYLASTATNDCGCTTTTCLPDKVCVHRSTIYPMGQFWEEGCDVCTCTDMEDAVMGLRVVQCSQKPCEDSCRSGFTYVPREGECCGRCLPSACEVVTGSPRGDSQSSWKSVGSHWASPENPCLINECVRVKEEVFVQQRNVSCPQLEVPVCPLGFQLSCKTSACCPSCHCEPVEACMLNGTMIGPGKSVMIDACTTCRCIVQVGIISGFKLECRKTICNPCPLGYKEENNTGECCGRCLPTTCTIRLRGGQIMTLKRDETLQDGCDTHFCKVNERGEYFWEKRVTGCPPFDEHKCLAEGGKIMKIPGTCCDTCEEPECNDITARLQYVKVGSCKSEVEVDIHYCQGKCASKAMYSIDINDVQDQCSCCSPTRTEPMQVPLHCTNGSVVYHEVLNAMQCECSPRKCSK

vWF occupancy (%) [1]: 101% | vWF occupancy (%) [2]: 102% | vWF occupancy (%) [3]: 97% | vWF occupancy (%) [4]: 2.3% | ex vivo inhibition of the vWF-collagen interaction (%) [5]: 96% | vWF occupancy (%) [6]: 99% | ex vivo inhibition of the vWF-collagen binding (%) [7]: 31% | vWF occupancy (%) [8]: 74% | vWF occupancy (%) [9]: 80% | vWF occupancy (%) [10]: 96% | IC50 [11]: 0.02 µg/mL | vWF occupancy (%) [12]: 94% | vWF occupancy (%) [13]: 63% | plasma level from which vWF-occupancy is maximal [14]: 1 µg/mL | vWF occupancy (%) [15]: 97% | ex vivo inhibition of the vWF-collagen interaction (%) [16]: 96% | vWF occupancy (%) [17]: 88% | vWF occupancy (%) [18]: 96% | vWF occupancy (%) [19]: 6.9% | platelet deposition onto human collagen type I in flow, shear rate 1300 s^-1 [20]: 1 to 5 µg/mL | vWF occupancy (%) [21]: 80% | vWF occupancy (%) [22]: 2.3%
Substance: murine anti-human vWF monoclonal antibody mAb 82D6A3

IC50 [11]: 1 µg/mL | platelet deposition onto human collagen type I in flow, shear rate 1300 s^-1 [20]: 10 µg/mL
Substance: 82D6A3 F(ab) fragment (Fab)

collagen binding (%) [23]: 100% | collagen binding (%) [24]: 69% | collagen binding (%) [25]: 45% | collagen binding (%) [26]: 4% | collagen binding (%) [27]: 4% | collagen binding (%) [28]: 3.52% | collagen binding (%) [29]: 4% | collagen binding (%) [30]: 101% | collagen binding (%) [31]: 3.5% | collagen binding (%) [32]: 93% | collagen binding (%) [33]: 64% | collagen binding (%) [34]: 4% | collagen binding (%) [35]: 91% | collagen binding (%) [36]: 4% | collagen binding (%) [37]: 4% | collagen binding (%) [38]: 101%
Substance: baboon von Willebrand factor (vWF), A0A096N8H2 764-2813
